Reference: US20260234224A1 (VANDERBILT UNIVERSITY, published 2026)

Target: T1, SARS-CoV-2 RBD (SARS-CoV-2, UniProt P0DTC2 319-541)
T1 construct: domain: RBD
Assay: ELISA on recombinant spike subdomains

B1: 71281-31 (antibody, V domains shown)
VH: QVQLVESGGGVVQPGRSLRLSCAASGFTFSRYGMHWVRQAPGKGLEWVAFISYDGDNKYYADSVKGRFTISRDNSKNTLYLQMDSLRTEDTAVYYCAKDPTARLGYCRGGSCYLADYWGQGTLVTVSS
VL: SYVLTQPPSVSVAPAQTARITCGGNNIESKSVHWYQQKPGQAPVLVVYENSDRPSGIPERFSGSNSGNMATLTISRVEAGDEADYYCQVWESSSDHVIFGGGTKLTVL
binding result: binds
